The target of this assay is T1, GST-RPS14 (UniProt P62263 1-151).
T1 construct: ribosomal protein RPS14; also called recombinant GST-RPS14
Put plainly: pull-down; GST-RPS14 and His-hCINAP incubated in 1 ml NP-40 lysis buffer (50 mM Tris pH 8.0, 150 mM NaCl, 1% NP-40) for 2 h at 4 °C, then ATP or AMP-PNP at 1 mM with 5 mM MgCl2 for 1 h; GST beads 1 h; western blot. Particulars: both partners purified. A general note: A western blot detects proteins with antibodies after separation by electrophoresis.

B1: His-hCINAP (enzyme)
chain: MLLPNILLTGTPGVGKTTLGKELASKSGLKYINVGDLAREEQLYDGYDEEYDCPILDEDRVVDELDNQMREGGVIVDYHGCDFFPERWFHIVFVLRTDTNVLYERLETRGYNEKKLTDNIQCEIFQVLYEEATASYKEEIVHQLPSNKPEELENNVDQILKWIEQWIKDHNS
notes: also called His6-hCINAP
As for B1, the binding result is “binds”.
